Measured values published in patent US20210179706A1 (AKESO BIOPHARMA, published 2021).

What was measured:
human IL-1β-His-Bio [1] = biological target: T1, human IL-1β-His-Bio (human, UniProt P01584 117-269, limits assumed, biotinylated with EZ-Link Sulfo-NHS-LC-Biotinylation Kit (sites not given)); test: ELISA, IL-1β-His-Bio captured on streptavidin; antibody 0.012 µg/mL
T1 construct: also called biotinylated human IL-1β-His; not shown: His tag

human IL-1β-His-Bio [2] = biological target: T1, human IL-1β-His-Bio; test: ELISA, IL-1β-His-Bio captured on streptavidin; 4-parameter fit
Experimental: A plate was coated with 50 μL of 2 μg/mL SA (streptavidin) in each well, and incubated overnight at 4° C. After the plate was washed once and the residual liquid was removed, each well was blocked with 300 μL of 1% BSA solution (dissolved in PBS) and the plate was incubated at 37° C. for 2 h. The plate was washed three times and the residual liquid was removed. Human IL-1β-His-Bio in each well was diluted with 50 μL of PBST to 0.2 μg/mL, and the plate was incubated at 37° C. for 30 min. Then the plate was washed three times and the residual liquid was removed. […] Two duplicate wells were set for the above concentrations, with a final volume of 100 μL per well, and the plate was incubated at 37° C. for 30 min. […] After the plate was washed four times and the residual liquid was removed, 50 μL of TMB chromogenic solution was added to each well for color developing for 5 min away from light at room temperature, then 50 μL of stop solution was added to each well to stop the reaction. Then the plate was put into a plate reader immediately, and the OD value of each well in the plate was read at 450 nm.
SoftMax Pro 6.2.1 software was used to analyze and process the data. 4-parameter fitted curves were plotted using the antibody concentration as the abscissa and the absorbance as the ordinate.

human IL-1β-hFc = biological target: T2, human IL-1β-hFc (human, UniProt P01584 117-269, limits assumed); test: competition ELISA on coated IL-1β-hFc, competitor IL-1R1(1-332)-his; 4-parameter fit
T2 construct: also called human IL-1f3-hFc [sic]; not shown: human IgG Fc purification tag

B1: anti-IL-1β murine monoclonal antibody 3H6 (antibody, V domains shown)
VH: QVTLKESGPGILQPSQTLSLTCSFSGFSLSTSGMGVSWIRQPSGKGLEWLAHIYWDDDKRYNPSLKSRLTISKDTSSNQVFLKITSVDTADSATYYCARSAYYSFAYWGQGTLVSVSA
VL: DIVMTQSHKFMSTSVGGRVRITCKASQDVDTDVAWFQQKPGQSPKLLIYWASTRHTGVPDRFTGSGSGTDFTLTISNVQSEDLADYFCQQYSSYPTFGAGTKLELK
notes: Mouse monoclonal antibody purified from hybridoma supernatant on protein A; also called antibody secreted by hybridoma cell line LT010 (IL-1β-3H6), CCTCC NO: C2018133
- OD (450 nm) (human IL-1β-His-Bio [1]): 1.23 OD450
- EC50 (human IL-1β-His-Bio [2]): 0.099 nM
- EC50 (human IL-1β-hFc): 0.137 nM
